First the molecules themselves.
T1: Glycoprotein VI extracellular domain (Gln21-Lys267) (Homo sapiens, UniProt Q9HCN6 SEQ:1-247)
T1 chain: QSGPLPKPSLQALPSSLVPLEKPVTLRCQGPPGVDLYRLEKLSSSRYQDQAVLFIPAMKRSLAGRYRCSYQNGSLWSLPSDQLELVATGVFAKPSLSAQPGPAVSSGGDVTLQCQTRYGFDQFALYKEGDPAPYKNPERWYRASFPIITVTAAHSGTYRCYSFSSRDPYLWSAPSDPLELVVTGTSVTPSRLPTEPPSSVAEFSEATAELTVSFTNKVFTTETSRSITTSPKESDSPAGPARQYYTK

B1: EF-2 T1 (ssRNA)
RNA: GGGAGGACGAUGCGGUGCCAAAACACCCGUCUUGCAUAAGCCUCCUACGGCAACU
modifications: 2'-F C and U; 2'-OH A and G
B2: EF-3 (RB429) (ssRNA)
RNA: GGGAGGACGAUGCGGAUCACACCGCGUCUUGCGUAAGCCUCCUACUAACGGAUCGCAGACGACUCGCUGAGGAUCCGAGA
modifications: 2'-F C and U; 2'-OH A and G
B3: E2-6 (RB431) (ssRNA)
RNA: GGGAGGACGAUGCGGAUAGACCGCGUCUGGCAUAAGCCUCCAAACACUCUGAUCCCAGACGACUCGCUGAGGAUCCGAGA
modifications: 2'-F C and U; 2'-OH A and G

Consider 22 molecules from patent US20100311820, “NUCLEIC ACID MODULATORS OF GLYCOPROTEIN VI” (Regado Biosciences, Inc, published 2010).

In the data set the target is T1, Glycoprotein VI extracellular domain …. The experiment in a line: filter. The following applies: tags: C-terminal His6; R&D Systems 3627-GP; label: 5'-32P. How it is done:
Enrichment of the ligand libraries for GPVI was monitored in direct binding studies utilizing radiolabeled ligand RNA from respective rounds of SELEX and soluble GPVI. Binding studies were performed with trace P³² end-labeled RNA added to serial dilutions of GPVI in Binding Buffer F. To prepare radiolabeled RNAs for binding studies, one hundred picomoles of RNA was dephosphorylated with Bacterial Alkaline Phopshatase at 50° C. for 1 hour. The reaction was phenol:chloroform:isoamyl alcohol (25:24:1) extracted, chloroform: isoamyl:alcohol (24:1) extracted, and ethanol precipitated. Three pmoles of dephosphorylated RNA was end labeled with T4 Poylnucleotide Kinase with supplied buffer, and 20 μCi of γ-P³²-ATP and subsequently cleaned with a Biorad MicroBio Spin P-30 spin column. End-labeled RNA was diluted to a final concentration of 2000 cpm/μL and heat denatured at 65° C. for 5 minutes. RNA and GPVI dilutions were equilibrated at 37° C. prior to use. RNA (5 μL) was added to varying concentrations of GPVI (15 μL) at 37° C. and incubated together for 5 to 15 minutes. The complexed RNA/GPVI protein mixture was then loaded over a Protean BA85 nitrocellulose membrane, overlayed on a Genescreen Plus Nylon membrane, in a 96 well vacuum manifold system with washing. The membranes were exposed to a phosphorimager screen, scanned, and quantitated with a Molecular Dynamics Storm 840 Phosphorimager. The fraction bound was calculated by dividing the counts on the nitrocellulose by the total counts and adjusting for the background. Results for binding of enriched ligand libraries from round 10 E2 and round 10 EF of the SELEX as compared to the GPVI-naïve starting ligand library are shown in FIG. 3.
GGGAGGACGGCGAUCACACGCCUUGCGUAAGCCUCCC (ssRNA, 2'-F C and U; 2'-OH A and G) [EF-3 T5 (RB447)] came in with a Kd of 15.5 nM. In the case of GGGAGGACGGCGGAUCACACCGCCUUGCGUAAGCCUCCC (ssRNA, 2'-F C and U; 2'-OH A and G) [EF-3 T4 (RB446)] it was 15.5 nM.

As to GGAGGACGGCGCGCCUGGCAUAAGCCUCC (ssRNA, RB540 with PS C7-G8 and G8-G9) [RB561], the Kd is < 10 nM.

Regarding GGAGGACGGCGCGCCUGGCAUAAGCCUCC (ssRNA, RB551 with PS C7-G8) [RB554], the Kd is < 10 nM. In the case of GGGAGGACGGCGCGCCUGGCAUAAGCCUCCC (ssRNA, RB490 pattern but 2'-OH G19 and 2'-F C26) [RB488] it was < 10 nM. In the case of GGGAGGACGGCGCGCCUGGCAUAAGCCUCCC (ssRNA, RB490 with 2'-OMe A24) [RB506] it was < 10 nM. The result for GGGAGGACGGCGCGCCUGGCAUAAGCCUCCC (ssRNA, RB490 with 2'-deoxy A7) [RB495] reads < 10 nM; that for GGGAGGACGGCGCGCCUGGCAUAAGCCUCCC (ssRNA, RB490 with 2'-OMe G25) [RB502], < 10 nM.

Consider GGGAGGACGGCGCGCCUGGCAUAAGCCUCCC (ssRNA, RB490 with 2'-OMe A21) [RB503], for which the Kd was < 10 nM.

Consider GGGAGGACGGCGCGCCUGGCAUAAGCCUCCC (ssRNA, RB490 with 2'-OMe A23) [RB505], for which the dissociation constant (Kd) is < 10 nM.

In the case of GGGAGGACGGCGCGCCUGGCAUAAGCCUCCC (ssRNA, RB490 with 2'-OMe G6, 2'-deoxy A7) [RB519], the Kd is < 10 nM. Turning to GGGAGGACGGCGCGCCUGGCAUAAGCCUCCC (ssRNA, RB490 with 2'-OMe C15) [RB500], the Kd was < 10 nM.

As for GGGAGGACGGCGCGCCUGGCAUAAGCCUCCC (ssRNA, RB490 with 2'-OMe G6) [RB491], the dissociation constant (Kd) is < 10 nM. GGGAGGACGGCGCGCCUGGCAUAAGCCUCCC (ssRNA, RB490 with 2'-OMe G9) [RB497]: the Kd is < 10 nM. The result for GGGAGGACGAUGCGGAUCACACCGCGUCUUGCGUAAGCCUCCU (ssRNA, 2'-F C and U; 2'-OH A and G) [EF-3 T2 (RB430)] reads 15.5 nM; that for GGGAGGACGAUGCGGUGCCAAAACACCCGUCUUGCAUAAGCCUCCU (ssRNA, 2'-F C and U; 2'-OH A and G) [EF-2 T2 (RB428)], 15.5 nM.

Regarding GGAGGACGGCGCGCCUGGCAUAAGCCUCC (ssRNA, RB551 with PS G9-C10) [RB556], the Kd is < 10 nM. In turn, B1 registered a dissociation constant Kd of 15.5 nM. B2 had a Kd of 15.5 nM.

Take GGAGGACGGCGCGCCUGGCAUAAGCCUCC (ssRNA, RB551 with PS G8-G9) [RB555]: the dissociation constant Kd was < 10 nM. As to GGAGGACGGCGCGCCUGGCAUAAGCCUCC (ssRNA, RB540 with PS G9-C10) [RB550], the dissociation constant Kd is < 10 nM.

Regarding B3, binding was put at a Kd of 15.5 nM.
